Measurements taken from patent US20260167738A1 (published 2026).
Values belong to the binder of their own block, whether it stands above or below them.

Legend:
[1] = molecular target: full-length human CD33 (CD33^FL) (UniProt P20138 18-364); experiment: SPR (Biacore)
CD33ΔE2 = experiment: SPR (Biacore)

full-length human CD33 (CD33^FL), sequence (P20138 18-364): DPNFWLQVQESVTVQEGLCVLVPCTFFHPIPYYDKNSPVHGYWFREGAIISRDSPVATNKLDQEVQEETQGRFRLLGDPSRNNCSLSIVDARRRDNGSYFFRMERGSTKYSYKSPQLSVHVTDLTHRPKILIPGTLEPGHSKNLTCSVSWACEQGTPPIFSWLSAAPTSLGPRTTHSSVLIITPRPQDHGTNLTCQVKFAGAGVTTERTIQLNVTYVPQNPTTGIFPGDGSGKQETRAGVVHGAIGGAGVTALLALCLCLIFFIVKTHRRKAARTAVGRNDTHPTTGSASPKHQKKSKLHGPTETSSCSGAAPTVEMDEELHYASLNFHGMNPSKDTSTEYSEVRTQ

- Kd [1]: 4.89 nM
B1: 2D3 antibody (antibody, V domains shown)
VH: EVQLLESGGGLVQPGGSLSLSCAASGFTFSIYAMSWVRQAPGKGLEWVSAISDSGGTTYYADSVKGRFTISRDNSKNMLYLEMNSLRAEDTAIYYCAKRTRYFNGMDVWGQGTTVTVSS
VL: EIVMTQSPATLSLSPGERATLSCRASQSGSSSFLSWYQQKPGQAPRLLIYGASTRATGIPARFSGSGSGTDFTLTISSLQPEDFAVYYCQQDYNLPFTFGPGTKVDIK

- Kd (CD33ΔE2): 0.136 nM
B2: 1H10 (antibody, V domains shown)
VH: QVQLVQSGAEVKKPGASVKVSCKGSGYIFTSYDMHWVRQAPGQGLEWMGIIDPSGGSTSYAQKFQGRVTMTRDTSMSTVYMELSSLRSEDTAVYYCTRDYSWSYFDYWGQGTLVTVSS
VL: AIQMTQSPSSLSASVGDRVTITCRASQGIRIYLGWYQQKPGKAPKLLIYATSSLQSGVPSRFSGSGSGTDFTLTISSLQPEDFATYYCLQDYNYPWTFGQGTKVEIK

- Kd [1]: 3.71 nM
B3: 1H10 antibody (antibody, V domains shown)
VH: B2 VH
VL: B2 VL
